{"source": "patent US20260209387A1", "about": "“SINGLE-DOMAIN ANTIBODY FOR INHIBITION OF NEUTROPHIL ELASTASE ACTIVITY” (UNIVERSITE DE LIEGE, priority 2023, published 2026)", "key": {"human cathepsin G (hCG)": {"target": "T1, human cathepsin G (hCG) (Homo sapiens, UniProt P08311)", "T1 construct": "purchased Calbiochem", "T1 sequence (P08311 21-244)": "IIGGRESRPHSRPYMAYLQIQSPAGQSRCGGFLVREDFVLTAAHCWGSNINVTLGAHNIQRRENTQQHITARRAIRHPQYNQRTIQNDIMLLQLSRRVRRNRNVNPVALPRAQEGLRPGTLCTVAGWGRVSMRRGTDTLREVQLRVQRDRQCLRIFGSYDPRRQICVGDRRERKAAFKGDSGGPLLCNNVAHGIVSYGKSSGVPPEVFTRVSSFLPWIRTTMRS", "test": "BLI binding to other serine proteases: hCG", "conditions": "50 nM protease", "procedure": "(§1) The specificity of NbE201 for hNE was also investigated by BLI. Biotinylated NbE201 (10 μg/mL) was immobilized on streptavidin biosensors (SA, Sartorius) following provider's indications. The biosensors were then immersed in a 50 nM solution of a serine protease. The proteases tested were human cathepsin G (hCG), human proteinase 3 (hPR3), mouse pancreatic elastase (mPE), mouse neutrophil elastase (mNE) and porcine pancreatic elastase (pPE). hNE was used a positive control. The association and dissociation were measured for 70 s and 320 s respectively, in kinetic buffer (KB, Sartorius). The experiments were carried out at 30° C. in 384-wells black-bottom microplates in polypropylene (Greiner Bio-One, Belgium) and with orbital agitation (1000 rpm)."}, "[1]": {"target": "T2, human proteinase 3 (hPR3) (Homo sapiens, UniProt P24158)", "T2 construct": "purchased EPC (Elastin Products Company)", "T2 sequence (P24158 28-248)": "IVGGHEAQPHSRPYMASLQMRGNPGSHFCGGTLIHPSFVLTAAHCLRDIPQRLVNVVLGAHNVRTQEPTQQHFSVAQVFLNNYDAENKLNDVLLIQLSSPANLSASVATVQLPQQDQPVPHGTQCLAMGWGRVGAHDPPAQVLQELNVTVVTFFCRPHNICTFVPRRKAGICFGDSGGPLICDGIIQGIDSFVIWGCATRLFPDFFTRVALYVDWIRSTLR", "test": "BLI binding to other serine proteases: hPR3", "conditions": "50 nM protease", "procedure": "as §1"}, "hNE [2]": {"target": "T3, hNE (Homo sapiens, UniProt P08246)", "T3 construct": "purchased Elastin Products Company (EPC)", "T3 sequence (P08246 30-247)": "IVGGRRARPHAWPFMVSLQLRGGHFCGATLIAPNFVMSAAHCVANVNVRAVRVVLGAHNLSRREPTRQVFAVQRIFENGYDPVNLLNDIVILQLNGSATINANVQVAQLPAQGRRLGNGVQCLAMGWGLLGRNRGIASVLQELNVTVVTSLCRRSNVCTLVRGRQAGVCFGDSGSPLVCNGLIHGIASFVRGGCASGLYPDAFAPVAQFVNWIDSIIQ", "test": "BLI specificity assay, hNE positive control", "format": "binding", "conditions": "50 nM protease", "procedure": "as §1"}, "hNE [3]": {"target": "T3, hNE", "test": "Competitive binding by BLI with AAT, EI3 and Nb-H7S-Nter-P1", "procedure": "The biotinylated NbE201 (10 μg/ml in KB buffer) was immobilized on streptavidin biosensors (SA, Sartorius) following the provider's indications. A biosensor quenching step with biocytin 1 μg/mL was performed. […] The association was measured for 280 s in kinetic buffer (KB buffer, Sartorius). The experiments were carried out at 30° C. in 384-wells black-bottom microplates in polypropylene (Greiner Bio-One, Belgium) and with agitation (1000 rpm)."}, "[4]": {"test": "Heat-induced unfolding by far UV-CD at 206 nm", "format": "physicochemical", "conditions": "far UV-CD 206 nm; average of three batches; pH 7", "procedure": "1.12.1. Preparation of the samples and measurements. Samples of NbE201 in 0.05 M NaP buffer pH 7 were prepared at a protein concentration of 0.2 mg mL-1. All the experiments were carried out in 1 mm quartz cell and a JASCO J-810 CD spectrophotometer equipped with a Peltier cell-holder. Mineral oil was added on the top of the sample to avoid sample evaporation. The CD spectrum of the native and denatured states of the protein were recorded from 190 nm to 260 nm at 25° C. and at 97° C. 61 data points were recorded with a 1 nm data interval, a data pitch of 0.1 nm, 2 s integration time, a bandwidth of 1 nm and a scanning speed of 50 nm/min. Heat-induced unfolding was monitored by far UV-CD at 206 nm. […] Data were acquired with a reading frequency of 0.05 s^−1 using a 4 s integration time and a 1 nm bandwidth. […]\n1.12.2. […] The transition curves obtained were analyzed based on a two-state (N ? U) model and Equation 1 where x is the temperature during the analysis and a=−(ΔHm (1−x/Tm))/RT (doi: 10.1016/j.jmb.2008.11.046), and yobs is the CD signal at 206 nm at a given temperature (x), and YN and YU are the values of these signals for the native and denatured states, respectively at 273K. p and q are the slopes of the pre- and post-transition baselines, respectively, R is the gas constant, and T is the absolute temperature. […]"}, "hNE [5]": {"target": "T3, hNE", "test": "Stability of NbE201 towards hNE (SDS-PAGE, 37° C.)", "format": "in vitro ADME", "procedure": "NbE201 (26.4 μM) was incubated at 37° C. alone or in the presence of hNE ([NbE201]: [hNE]=4:1). Aliquots (10 μL) taken at different time intervals were mixed with 4 μL of sample loading buffer (Tris-HCl (pH 6.8), SDS denaturant (4%, % w/v), β-mercaptoethanol (5%, % v/v), bromophenol blue (0.01%, % w/v), glycerol (20%, % v/v), H2O)) and then stored at −20° C. until analysis by SDS-PAGE using 4-20% Mini-PROTEAN TGX Protein Gel, 10 wells, 50 μL (Bio-Rad, Germany). Then, the gel was stained by Coomassie blue, destained in water and imaged using a Gel Doc EZ Imager (Biorad). The relative amount of intact protein was quantified by densitometry analysis with a Gel Doc EZ Imager program using the intensity of the band at time zero as the relative standard. hNE alone was incubated on similar conditions and an aliquot was taken at different time points to measure its activity using N-Succinyl-Ala-Ala-Ala-paraNitroAnilide as substrate as describe above."}}}
{"molecule": "NbE201: anti-hNE ISVD (VHH/nanobody) from immunized lama, amino acid sequence SEQ ID NO: 4 (protein) VHH: QVQLQESGGGLVQAGGSLRLSCVVPGRTISLYRMGWFRQAPGKEREFVAGINWSGDMTDYVDSVKGRFTISRDNAKNTVYLEMNSLKPEDTAIYYCTADPKLLPLADSSYGYWGQGTQVTVSS", "values": [{"measurement": "binding to hCG by BLI", "setting": "human cathepsin G (hCG)", "result": "does not bind to the other proteases"}, {"measurement": "binding to hPR3 by BLI", "setting": "[1]", "result": "does not bind to the other proteases"}, {"measurement": "binding to hNE by BLI (positive control)", "setting": "hNE [2]", "result": "association signal"}, {"measurement": "binding of hNE in complex with AAT to immobilized NbE201", "setting": "hNE [3]; hNE 250 nM pre-incubated with AAT 1.5 μM", "result": "does not bind to NbE201"}, {"measurement": "binding of hNE pre-incubated with EI3 (MeOSuc-AAPV-CMK) to immobilized NbE201", "setting": "hNE [3]; hNE 250 nM, EI3 15 μM", "result": "unable to bind to NbE201"}, {"measurement": "binding of hNE pre-incubated with cAb-H7S-Nter-P1 to immobilized NbE201", "setting": "hNE [3]; hNE 250 nM, cAb-H7S-Nter-P1 1.5 μM", "result": "unable to bind to NbE201"}, {"measurement": "apparent temperature of unfolding (Tm^app)", "setting": "[4]", "result": "70.7±1.5", "unit": "°C"}, {"measurement": "time NbE201 is stable in presence of hNE", "setting": "hNE [5]; 37° C., [NbE201]:[hNE] 4:1", "result": 14, "unit": "days"}, {"measurement": "percentage of remaining complex (intact NbE201) over time", "setting": "hNE [5]; in presence of hNE, [NbE201]:[hNE] 4:1, 37° C., 14 days", "result": "around 100%"}]}
